Starred links: 1 amine or outer side, 2 acyl side, 3 side chain; linkers in the order of their positions; H or OH if unused. Non-standard residues stand in square brackets, D forms with d. Groups on a side chain read outwards from the residue. No end group written: not given here. *: point of attachment. C18 diacid = O=C(O)CCCCCCCCCCCCCCCCC(=O)*; γGlu = O=C(O)[C@H](CCC(=O)[*:2])N[*:1]; εLys = N[C@@H](CCCCN[*:1])C(=O)[*:2]; Aib = CC(C)(N)C(=O)O
T1: human GIP receptor (human, UniProt P48546 22-466)
T1 sequence (looked up): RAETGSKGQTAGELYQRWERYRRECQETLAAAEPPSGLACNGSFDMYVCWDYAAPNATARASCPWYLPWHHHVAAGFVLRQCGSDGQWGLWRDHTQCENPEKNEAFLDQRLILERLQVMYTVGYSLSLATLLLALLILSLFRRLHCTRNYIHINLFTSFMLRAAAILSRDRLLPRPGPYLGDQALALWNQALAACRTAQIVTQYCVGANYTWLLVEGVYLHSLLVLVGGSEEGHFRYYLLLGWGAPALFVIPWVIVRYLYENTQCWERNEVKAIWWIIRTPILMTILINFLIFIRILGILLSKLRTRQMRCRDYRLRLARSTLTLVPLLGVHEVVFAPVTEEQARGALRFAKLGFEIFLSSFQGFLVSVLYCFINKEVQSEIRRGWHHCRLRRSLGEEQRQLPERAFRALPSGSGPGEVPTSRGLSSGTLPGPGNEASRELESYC

B1: Compound No. 28 (peptide)
peptide: Y[Aib]EGTFTSDYSILLEK([εLys-εLys-γGlu-C18 diacid])QAAREFIEWLLRGGPESGAPPPS-OH
modifications: N-terminus assumed
SMILES: CC[C@H](C)[C@H](NC(=O)[C@H](Cc1ccccc1)NC(=O)[C@H](CCC(=O)O)NC(=O)[C@H](CCCNC(=N)N)NC(=O)[C@H](C)NC(=O)[C@H](C)NC(=O)[C@H](CCC(N)=O)NC(=O)[C@H](CCCCNC(=O)[C@@H](N)CCCCNC(=O)[C@@H](N)CCCCNC(=O)CC[C@H](NC(=O)CCCCCCCCCCCCCCCCC(=O)O)C(=O)O)NC(=O)[C@H](CCC(=O)O)NC(=O)[C@H](CC(C)C)NC(=O)[C@H](CC(C)C)NC(=O)[C@@H](NC(=O)[C@H](CO)NC(=O)[C@H](Cc1ccc(O)cc1)NC(=O)[C@H](CC(=O)O)NC(=O)[C@H](CO)NC(=O)[C@@H](NC(=O)[C@H](Cc1ccccc1)NC(=O)[C@@H](NC(=O)CNC(=O)[C@H](CCC(=O)O)NC(=O)C(C)(C)NC(=O)[C@@H](N)Cc1ccc(O)cc1)[C@@H](C)O)[C@@H](C)O)[C@@H](C)CC)C(=O)N[C@@H](CCC(=O)O)C(=O)N[C@@H](Cc1c[nH]c2ccccc12)C(=O)N[C@@H](CC(C)C)C(=O)N[C@@H](CC(C)C)C(=O)N[C@@H](CCCNC(=N)N)C(=O)NCC(=O)NCC(=O)N1CCC[C@H]1C(=O)N[C@@H](CCC(=O)O)C(=O)N[C@@H](CO)C(=O)NCC(=O)N[C@@H](C)C(=O)N1CCC[C@H]1C(=O)N1CCC[C@H]1C(=O)N1CCC[C@H]1C(=O)N[C@@H](CO)C(=O)O
B2: Compound No. 26 (peptide)
peptide: Y[Aib]EGTFTSDYSILLEK([εLys-εLys-γGlu-C18 diacid])QAAHEFINWLLAGGPSSGAPPPS-OH
modifications: N-terminus assumed
SMILES: CC[C@H](C)[C@H](NC(=O)[C@H](Cc1ccccc1)NC(=O)[C@H](CCC(=O)O)NC(=O)[C@H](Cc1c[nH]cn1)NC(=O)[C@H](C)NC(=O)[C@H](C)NC(=O)[C@H](CCC(N)=O)NC(=O)[C@H](CCCCNC(=O)[C@@H](N)CCCCNC(=O)[C@@H](N)CCCCNC(=O)CC[C@H](NC(=O)CCCCCCCCCCCCCCCCC(=O)O)C(=O)O)NC(=O)[C@H](CCC(=O)O)NC(=O)[C@H](CC(C)C)NC(=O)[C@H](CC(C)C)NC(=O)[C@@H](NC(=O)[C@H](CO)NC(=O)[C@H](Cc1ccc(O)cc1)NC(=O)[C@H](CC(=O)O)NC(=O)[C@H](CO)NC(=O)[C@@H](NC(=O)[C@H](Cc1ccccc1)NC(=O)[C@@H](NC(=O)CNC(=O)[C@H](CCC(=O)O)NC(=O)C(C)(C)NC(=O)[C@@H](N)Cc1ccc(O)cc1)[C@@H](C)O)[C@@H](C)O)[C@@H](C)CC)C(=O)N[C@@H](CC(N)=O)C(=O)N[C@@H](Cc1c[nH]c2ccccc12)C(=O)N[C@@H](CC(C)C)C(=O)N[C@@H](CC(C)C)C(=O)N[C@@H](C)C(=O)NCC(=O)NCC(=O)N1CCC[C@H]1C(=O)N[C@@H](CO)C(=O)N[C@@H](CO)C(=O)NCC(=O)N[C@@H](C)C(=O)N1CCC[C@H]1C(=O)N1CCC[C@H]1C(=O)N1CCC[C@H]1C(=O)N[C@@H](CO)C(=O)O
B3: Compound No. 24 (peptide)
peptide: Y[Aib]EGTFTSDYSILLEK([εLys-εLys-γGlu-C18 diacid])QAAQEFINWLLAGGPSSGAPPPS-OH
modifications: N-terminus assumed
SMILES: CC[C@H](C)[C@H](NC(=O)[C@H](Cc1ccccc1)NC(=O)[C@H](CCC(=O)O)NC(=O)[C@H](CCC(N)=O)NC(=O)[C@H](C)NC(=O)[C@H](C)NC(=O)[C@H](CCC(N)=O)NC(=O)[C@H](CCCCNC(=O)[C@@H](N)CCCCNC(=O)[C@@H](N)CCCCNC(=O)CC[C@H](NC(=O)CCCCCCCCCCCCCCCCC(=O)O)C(=O)O)NC(=O)[C@H](CCC(=O)O)NC(=O)[C@H](CC(C)C)NC(=O)[C@H](CC(C)C)NC(=O)[C@@H](NC(=O)[C@H](CO)NC(=O)[C@H](Cc1ccc(O)cc1)NC(=O)[C@H](CC(=O)O)NC(=O)[C@H](CO)NC(=O)[C@@H](NC(=O)[C@H](Cc1ccccc1)NC(=O)[C@@H](NC(=O)CNC(=O)[C@H](CCC(=O)O)NC(=O)C(C)(C)NC(=O)[C@@H](N)Cc1ccc(O)cc1)[C@@H](C)O)[C@@H](C)O)[C@@H](C)CC)C(=O)N[C@@H](CC(N)=O)C(=O)N[C@@H](Cc1c[nH]c2ccccc12)C(=O)N[C@@H](CC(C)C)C(=O)N[C@@H](CC(C)C)C(=O)N[C@@H](C)C(=O)NCC(=O)NCC(=O)N1CCC[C@H]1C(=O)N[C@@H](CO)C(=O)N[C@@H](CO)C(=O)NCC(=O)N[C@@H](C)C(=O)N1CCC[C@H]1C(=O)N1CCC[C@H]1C(=O)N1CCC[C@H]1C(=O)N[C@@H](CO)C(=O)O
B4: Compound No. 27 (peptide)
peptide: Y[Aib]EGTFTSDYSILLEK([εLys-εLys-γGlu-C18 diacid])QAAREFIEWLLRGGPSSGAPPPS-OH
modifications: N-terminus assumed
SMILES: CC[C@H](C)[C@H](NC(=O)[C@H](Cc1ccccc1)NC(=O)[C@H](CCC(=O)O)NC(=O)[C@H](CCCNC(=N)N)NC(=O)[C@H](C)NC(=O)[C@H](C)NC(=O)[C@H](CCC(N)=O)NC(=O)[C@H](CCCCNC(=O)[C@@H](N)CCCCNC(=O)[C@@H](N)CCCCNC(=O)CC[C@H](NC(=O)CCCCCCCCCCCCCCCCC(=O)O)C(=O)O)NC(=O)[C@H](CCC(=O)O)NC(=O)[C@H](CC(C)C)NC(=O)[C@H](CC(C)C)NC(=O)[C@@H](NC(=O)[C@H](CO)NC(=O)[C@H](Cc1ccc(O)cc1)NC(=O)[C@H](CC(=O)O)NC(=O)[C@H](CO)NC(=O)[C@@H](NC(=O)[C@H](Cc1ccccc1)NC(=O)[C@@H](NC(=O)CNC(=O)[C@H](CCC(=O)O)NC(=O)C(C)(C)NC(=O)[C@@H](N)Cc1ccc(O)cc1)[C@@H](C)O)[C@@H](C)O)[C@@H](C)CC)C(=O)N[C@@H](CCC(=O)O)C(=O)N[C@@H](Cc1c[nH]c2ccccc12)C(=O)N[C@@H](CC(C)C)C(=O)N[C@@H](CC(C)C)C(=O)N[C@@H](CCCNC(=N)N)C(=O)NCC(=O)NCC(=O)N1CCC[C@H]1C(=O)N[C@@H](CO)C(=O)N[C@@H](CO)C(=O)NCC(=O)N[C@@H](C)C(=O)N1CCC[C@H]1C(=O)N1CCC[C@H]1C(=O)N1CCC[C@H]1C(=O)N[C@@H](CO)C(=O)O
B5: Compound No. 39 (peptide)
peptide: Y[Aib]EGTFTSDYSILLEEQAARK([εLys-εLys-γGlu-C18 diacid])FINWLLAGGPSSGAPPPS-OH
modifications: N-terminus assumed
SMILES: CC[C@H](C)[C@H](NC(=O)[C@H](Cc1ccccc1)NC(=O)[C@H](CCCCNC(=O)[C@@H](N)CCCCNC(=O)[C@@H](N)CCCCNC(=O)CC[C@H](NC(=O)CCCCCCCCCCCCCCCCC(=O)O)C(=O)O)NC(=O)[C@H](CCCNC(=N)N)NC(=O)[C@H](C)NC(=O)[C@H](C)NC(=O)[C@H](CCC(N)=O)NC(=O)[C@H](CCC(=O)O)NC(=O)[C@H](CCC(=O)O)NC(=O)[C@H](CC(C)C)NC(=O)[C@H](CC(C)C)NC(=O)[C@@H](NC(=O)[C@H](CO)NC(=O)[C@H](Cc1ccc(O)cc1)NC(=O)[C@H](CC(=O)O)NC(=O)[C@H](CO)NC(=O)[C@@H](NC(=O)[C@H](Cc1ccccc1)NC(=O)[C@@H](NC(=O)CNC(=O)[C@H](CCC(=O)O)NC(=O)C(C)(C)NC(=O)[C@@H](N)Cc1ccc(O)cc1)[C@@H](C)O)[C@@H](C)O)[C@@H](C)CC)C(=O)N[C@@H](CC(N)=O)C(=O)N[C@@H](Cc1c[nH]c2ccccc12)C(=O)N[C@@H](CC(C)C)C(=O)N[C@@H](CC(C)C)C(=O)N[C@@H](C)C(=O)NCC(=O)NCC(=O)N1CCC[C@H]1C(=O)N[C@@H](CO)C(=O)N[C@@H](CO)C(=O)NCC(=O)N[C@@H](C)C(=O)N1CCC[C@H]1C(=O)N1CCC[C@H]1C(=O)N1CCC[C@H]1C(=O)N[C@@H](CO)C(=O)O
B6: Compound No. 25 (peptide)
peptide: Y[Aib]EGTFTSDYSILLEK([εLys-εLys-γGlu-C18 diacid])QAAEEFINWLLAGGPSSGAPPPS-OH
modifications: N-terminus assumed
SMILES: CC[C@H](C)[C@H](NC(=O)[C@H](Cc1ccccc1)NC(=O)[C@H](CCC(=O)O)NC(=O)[C@H](CCC(=O)O)NC(=O)[C@H](C)NC(=O)[C@H](C)NC(=O)[C@H](CCC(N)=O)NC(=O)[C@H](CCCCNC(=O)[C@@H](N)CCCCNC(=O)[C@@H](N)CCCCNC(=O)CC[C@H](NC(=O)CCCCCCCCCCCCCCCCC(=O)O)C(=O)O)NC(=O)[C@H](CCC(=O)O)NC(=O)[C@H](CC(C)C)NC(=O)[C@H](CC(C)C)NC(=O)[C@@H](NC(=O)[C@H](CO)NC(=O)[C@H](Cc1ccc(O)cc1)NC(=O)[C@H](CC(=O)O)NC(=O)[C@H](CO)NC(=O)[C@@H](NC(=O)[C@H](Cc1ccccc1)NC(=O)[C@@H](NC(=O)CNC(=O)[C@H](CCC(=O)O)NC(=O)C(C)(C)NC(=O)[C@@H](N)Cc1ccc(O)cc1)[C@@H](C)O)[C@@H](C)O)[C@@H](C)CC)C(=O)N[C@@H](CC(N)=O)C(=O)N[C@@H](Cc1c[nH]c2ccccc12)C(=O)N[C@@H](CC(C)C)C(=O)N[C@@H](CC(C)C)C(=O)N[C@@H](C)C(=O)NCC(=O)NCC(=O)N1CCC[C@H]1C(=O)N[C@@H](CO)C(=O)N[C@@H](CO)C(=O)NCC(=O)N[C@@H](C)C(=O)N1CCC[C@H]1C(=O)N1CCC[C@H]1C(=O)N1CCC[C@H]1C(=O)N[C@@H](CO)C(=O)O

Tests used:
human GIP receptor = target: T1, human GIP receptor; experiment: cell-based or functional assay
human GLP-1 receptor = human GLP-1 receptor (human, UniProt P43220 24-463); experiment: cell-based or functional assay

| Binder | hGIPR, CRE Luc 0% HSA EC50 (pM) (human GIP receptor) | hGIPR, CRE Luc 1% HSA EC50 (pM) (human GIP receptor) | hGLP-1R, CRE Luc 0% HSA EC50 (pM) (human GLP-1 receptor) | hGLP-1R, CRE Luc 1% HSA EC50 (pM) (human GLP-1 receptor) |
| --- | --- | --- | --- | --- |
| B1 | 6.6 pM | 86.5 pM | 6.2 pM | 139 pM |
| B2 | 4.9 pM | 153 pM | 7.4 pM | 595 pM |
| B3 | 3.9 pM | 115 pM | 12.1 pM | 490 pM |
| B4 | 6.3 pM | 132 pM | 4.6 pM | 127 pM |
| B5 | 28.4 pM | 365 pM | 8.2 pM | 135 pM |
| B6 | 7.2 pM | 263 pM | 15.5 pM | 740 pM |

— US20230272029A1, “CO-AGONISTS AT GLP-1 AND GIP RECEPTORS SUITABLE FOR ORAL DELIVERY” (Novo Nordisk A/S, priority 2020, published 2023)
